Experimental data reported in patent US20220363781A1.
Like-named read-outs stand apart in the source and are kept apart here.

Columns and labels:
human TSLP-His (human) [1] = molecular target: human TSLP-His (human) (UniProt Q969D9); experiment: ELISA, human TSLP-His coated, antibody titrated, anti-human Fc-HRP
human TSLP-His (human) [2] = molecular target: human TSLP-His (human) (UniProt Q969D9); experiment: cell-based or functional assay
human TSLP-His (human) [3] = molecular target: human TSLP-His (human) (UniProt Q969D9); experiment: BLI (Fortebio), antibody on ProA sensor, human TSLP titrated, 1:1 model
[4] = molecular target: monkey TSLP-His (cynomolgus monkey, Macaca fascicularis) (cynomolgus monkey (Macaca fascicularis)); experiment: ELISA, monkey TSLP-His coated, antibody titrated
monkey TSLP-His (cynomolgus monkey, Macaca fascicularis) (cynomolgus monkey (Macaca fascicularis)), sequence (chain, as listed by the source): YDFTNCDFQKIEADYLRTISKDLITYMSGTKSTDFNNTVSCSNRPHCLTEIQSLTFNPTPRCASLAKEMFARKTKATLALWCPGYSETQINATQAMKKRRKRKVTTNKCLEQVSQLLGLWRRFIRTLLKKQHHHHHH

FcRn (biotin-labeled) = experiment: BLI (Fortebio), biotin-FcRn on SA sensor, antibody 1.5625-200 nM, pH 6.0, 1:1 model
[5] = molecular target: monkey TSLP-His (cynomolgus monkey, Macaca fascicularis) (cynomolgus monkey (Macaca fascicularis)); experiment: BLI (Fortebio), antibody on ProA sensor, monkey TSLP 1.5625-100 nM, 1:1 model
human TSLP-His (human) [6] = molecular target: human TSLP-His (human) (UniProt Q969D9); experiment: competitive ELISA, hIL7Rα-hTSLPR-hFc coated, hTSLP-His plus titrated antibody, anti-His-HRP
human TSLP-His (human) [7] = molecular target: human TSLP-His (human) (UniProt Q969D9); experiment: cell-based or functional assay; remark: listed apart in the source
human TSLP-His (human) [8] = molecular target: human TSLP-His (human) (UniProt Q969D9); experiment: ELISA, human TSLP-His coated on the plate, serially diluted antibody, HRP goat anti-human Fc, absorbance at 450 nm
human TSLP-His (human) [9] = molecular target: human TSLP-His (human) (UniProt Q969D9); experiment: BLI (Fortebio), antibody on ProA sensor, human TSLP 1.5625-100 nM, 1:1 model
[10] = molecular target: monkey TSLP-His (cynomolgus monkey, Macaca fascicularis) (cynomolgus monkey (Macaca fascicularis)); experiment: ELISA, monkey TSLP-His coated, antibody titrated, anti-human Fc-HRP
human TSLP-His (human) [11] = molecular target: human TSLP-His (human) (UniProt Q969D9); experiment: ELISA, human TSLP-His coated, antibody titrated

human TSLP-His (human), sequence (Q969D9 other isoform, or with tags, fused parts or gaps limits assumed): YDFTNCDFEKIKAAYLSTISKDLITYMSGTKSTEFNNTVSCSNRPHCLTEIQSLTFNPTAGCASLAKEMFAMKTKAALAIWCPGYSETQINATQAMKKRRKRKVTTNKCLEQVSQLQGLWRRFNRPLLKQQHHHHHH

EC50 (human TSLP-His (human) [1]): 1.4 nM
hTSLP EC50, inhibition of the proliferation of Ba/F3-hTSLPR-hIL7Rα cells (human TSLP-His (human) [2]): 0.57 nM
Kd (human TSLP-His (human) [3]): 0.373 nM
EC50 [4]: 0.336 nM
Kd (FcRn (biotin-labeled)): 11.2 nM
Kd [5]: 1.15 nM
IC50 (human TSLP-His (human) [6]): 0.93 nM
EC50, blocking human TSLP-induced proliferation of Ba/F3-hTSLPR-hIL7Rα cells (CCK8) (human TSLP-His (human) [7]): 0.05 nM
EC50, inhibition of human TSLP-induced PBMC secretion of MDC (human TSLP-His (human) [7]): 5.63 pM
EC50, inhibition of human TSLP-induced PBMC secretion of TARC (human TSLP-His (human) [7]): 0.51 nM
hTSLP EC50, inhibition of the proliferation of Ba/F3-hTSLPR-hIL7Rα cells (human TSLP-His (human) [7]): 0.041 nM
EC50 (read off the curve) (human TSLP-His (human) [8]): 400 ng/mL
Kd (human TSLP-His (human) [9]): 0.8 nM
EC50 [10]: 0.19 nM
EC50 (human TSLP-His (human) [11]): 0.233 nM
Substance: Control antibody (control anti-TSLP antibody, chEMBL ID CHEMBL3707229)
